This is an account of results in patent EP2216341A1, “Transferrin variants and conjugates” (Novozymes Biopharma UK Limited, priority 2009, dated 2010).

The test system of experiment [1] is K562 erythroleukemic cells. In words: 55Fe uptake from labeled diferric transferrin in erythroleukemic K562 cells. In kind it is cell-based, human. To be noted: 25 minutes at 37°C. Here is the method: Human plasma-derived apo-transferrin (Calbiochem 616419, tissue culture grade, pyrogen-free) is supplied lyophilised from 10mM phosphate buffer, pH7.4. The transferrin mutein is expressed, purified and quantified as described above.
For iron-55 uptake from labeled diferric transferrin, K562 erythroleukemic cells, cultured in RPMI cell culture medium under standard conditions (bicarbonate-buffered, 5% (v/v) CO2, antibiotics, 10% (v/v) fetal calf serum) are washed with serum-free medium containing HEPES-buffer and 1 mg/ml of bovine serum albumin and used at a concentration of 10 million cells/ml in this medium. The samples tested are prepared as equimolar concentrations of apo-transferrin mutein. Apo-transferrin mutein is loaded with iron according to a standard procedure (Bates and Schlabach, J Biol Chem, 248, 3228-3232, 1973) using ferric nitrilotriacetate as iron source. Typically 50µl of 1 M NaClO4 is added to 450µl of the transferrin mutein stock-solution (pH is alkaline to neutral). The ^55Fe -NTA-loading-buffer is prepared by mixing 8.5µl 50mM NTA (pH 8.25), 18.9µl 0.1M Tris, 98.8µl Millipore-purified water and 7.5µl ^55FeCl3 in 0.5 N HCl (NEN products). 500µl of transferrin mutein is carefully mixed (dropwise) with the ^55Fe -NTA-loading-buffer and then 310µl of 5mM Hepes. NaOH/0.1M NaClO4 is added. The mixture is incubated at 4°C for 60 min following which it is deslated on a PD-10 column (containing Sephadex G-25) and dialysed. The PD-10 column is equilibrated with 5ml of equilibration buffer (5mM Hepes/NaOH, 0.1M NaClO4, 0.1 g BSA (Amresco)) then washed three times with 5ml of wash buffer (5mM Hepes/NaOH, 0.1M NaClO4). […]
Increasing concentrations of human plasma transferrin or the transferrin mutein sample (0, 25, 100, 200, 400, 800, 1600 nM), labeled with ^55Fe, are mixed with 25 µl of medium. […] The lysates are neutralized with 1 M HCl after overnight lysis, mixed with Readysolv Scintillation cocktail and counted in the Packard Liquid Scintillation Counter. […]

Experiment [2] has as its target T1, transferrin receptor 1 (TfR1) (Homo sapiens, UniProt P02786).
T1 construct: purchased AbD Serotec 9110-300
In words: Transferrin receptor 1 binding by Surface Plasmon Resonance (SPR, Biacore). To be noted: fluorescein conjugated sample. The text has this:
The receptor binding capability of the recombinant transferrin variants can be determined by Surface Plasmon Resonance (SPR) analysis. The binding activity of a transferrin sample to a transferrin receptor can be measured using surface plasmon resonance (SPR) a non-invasive optical technique in which the SPR response is a measure of change in mass concentration at the detector surface as molecules bind or dissociate. A sample is sent onto the surface of the sensor chip via a micro flow system at a constant flow rate. In this analysis, if the transferrin sample is able to bind to the Transferrin Receptor the mass on the surface sensor chip is increased due to binding between Transferrin Receptor and Transferrin molecules creating a surface plasmon wave, and a shift of the SPR signal proportional to the binding quantity can be detected as a change in the resonance unit (RU). […]
The binding capacity of human serum transferrin to human trabnsferrin receptor 1 may be measured by SPR. […]
The receptor binding capability of the recombinant transferrin variants was assessed by Surface Plasmon Resonance (SPR) analysis. The binding activity of a transferrin sample to transferrin receptor can be measured using surface plasmon resonance (SPR) a non-invasive optical technique in which the SPR response is a measure of change in mass concentration at the detector surface as molecules bind or dissociate. […]

T1 sequence (P02786 whole entry): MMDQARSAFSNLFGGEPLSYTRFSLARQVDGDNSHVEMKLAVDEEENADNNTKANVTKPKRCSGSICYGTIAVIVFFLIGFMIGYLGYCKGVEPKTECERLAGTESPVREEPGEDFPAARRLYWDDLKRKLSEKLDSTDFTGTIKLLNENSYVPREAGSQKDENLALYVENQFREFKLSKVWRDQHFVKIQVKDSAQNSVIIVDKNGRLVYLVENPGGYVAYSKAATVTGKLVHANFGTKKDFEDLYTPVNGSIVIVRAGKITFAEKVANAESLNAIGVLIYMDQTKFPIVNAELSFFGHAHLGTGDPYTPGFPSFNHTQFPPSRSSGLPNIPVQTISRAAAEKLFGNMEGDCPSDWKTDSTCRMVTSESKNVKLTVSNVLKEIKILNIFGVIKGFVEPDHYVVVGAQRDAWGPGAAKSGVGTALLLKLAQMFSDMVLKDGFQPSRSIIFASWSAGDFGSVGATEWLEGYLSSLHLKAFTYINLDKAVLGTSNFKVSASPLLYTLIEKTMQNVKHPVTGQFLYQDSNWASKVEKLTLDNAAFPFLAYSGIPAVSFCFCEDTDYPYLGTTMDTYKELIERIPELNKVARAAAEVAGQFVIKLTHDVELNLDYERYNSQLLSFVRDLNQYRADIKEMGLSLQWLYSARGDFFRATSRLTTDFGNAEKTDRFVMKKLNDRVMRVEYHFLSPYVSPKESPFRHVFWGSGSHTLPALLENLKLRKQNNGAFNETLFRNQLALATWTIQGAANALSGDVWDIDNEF

B1: Fluorescein conjugated thio-transferrin (S28C, S415A, T613A): Thiotransferrin (S28C, S415A, T613A) conjugated with fluorescein (conjugate, UniProt P02787 20-698, looked up, variant S28C S415A T613A)
Serotransferrin: VPDKTVRWCAVSEHEATKCQSFRDHMKCVIPSDGPSVACVKKASYLDCIRAIAANEADAVTLDAGLVYDAYLAPNNLKPVVAEFYGSKEDPQTFYYAVAVVKKDSGFQMNQLRGKKSCHTGLGRSAGWNIPIGLLYCDLPEPRKPLEKAVANFFSGSCAPCADGTDFPQLCQLCPGCGCSTLNQYFGYSGAFKCLKDGAGDVAFVKHSTIFENLANKADRDQYELLCLDNTRKPVDEYKDCHLAQVPSHTVVARSMGGKEDLIWELLNQAQEHFGKDKSKEFQLFSSPHGKDLLFKDSAHGFLKVPPRMDAKMYLGYEYVTAIRNLREGTCPEAPTDECKPVKWCALSHHERLKCDEWSVNSVGKIECVSAETTEDCIAKIMNGEADAMSLDGGFVYIAGKCGLVPVLAENYNKADNCEDTPEAGYFAIAVVKKSASDLTWDNLKGKKSCHTAVGRTAGWNIPMGLLYNKINHCRFDEFFSEGCAPGSKKDSSLCKLCMGSGLNLCEPNNKEGYYGYTGAFRCLVEKGDVAFVKHQTVPQNTGGKNPDPWAKNLNEKDYELLCLDGTRKPVEEYANCHLARAPNHAVVTRKDKEACVHKILRQQQHLFGSNVADCSGNFCLFRSETKDLLFRDDTVCLAKLHDRNTYEKYLGEEYVKAVGNLRKCSTSSLLEACTFRRP
modifications: fluorescein conjugate
Turning to B1, the “Specific iron ptake Bmax” value in experiment [1] (55Fe-labeled sample 0-1600 nM, specific uptake (unspecific binding with hundredfold excess unlabeled diferric transferrin accounted for)) was 2430±125 fmol^55Fe/10^6 cells 25min. In addition, the “Total Iron Uptake Bmax” value in experiment [1] (55Fe-labeled sample 0-1600 nM, total uptake) was 3294±170 fmol^55Fe/10^6 cells x 25min. The dissociation constant (Kd) in experiment [1] (specific uptake, read-out: Specific iron ptake Kd x) was determined as 154 ± 32 nM. In experiment [2], the “ability to bind to transferrin receptor 1 (measured by SPR)” value was “able to bind to transferrin receptor 1”.
